Key:
Experiment in all cases: human serum on Con A/WGA/Jacalin column, lectin-specific displacer fraction, LC-MS/MS; grade = SEQUEST rank group (+ = ranks 1-5, ++++ = 16-20)
[1] = molecular target: T1, INTER-ALPHA-TRYPSIN INHIBITOR HEAVY CHAIN H1 (human, UniProt P19827 35-672)
T1 construct: from human serum; also called ITH1
T1 sequence (looked up): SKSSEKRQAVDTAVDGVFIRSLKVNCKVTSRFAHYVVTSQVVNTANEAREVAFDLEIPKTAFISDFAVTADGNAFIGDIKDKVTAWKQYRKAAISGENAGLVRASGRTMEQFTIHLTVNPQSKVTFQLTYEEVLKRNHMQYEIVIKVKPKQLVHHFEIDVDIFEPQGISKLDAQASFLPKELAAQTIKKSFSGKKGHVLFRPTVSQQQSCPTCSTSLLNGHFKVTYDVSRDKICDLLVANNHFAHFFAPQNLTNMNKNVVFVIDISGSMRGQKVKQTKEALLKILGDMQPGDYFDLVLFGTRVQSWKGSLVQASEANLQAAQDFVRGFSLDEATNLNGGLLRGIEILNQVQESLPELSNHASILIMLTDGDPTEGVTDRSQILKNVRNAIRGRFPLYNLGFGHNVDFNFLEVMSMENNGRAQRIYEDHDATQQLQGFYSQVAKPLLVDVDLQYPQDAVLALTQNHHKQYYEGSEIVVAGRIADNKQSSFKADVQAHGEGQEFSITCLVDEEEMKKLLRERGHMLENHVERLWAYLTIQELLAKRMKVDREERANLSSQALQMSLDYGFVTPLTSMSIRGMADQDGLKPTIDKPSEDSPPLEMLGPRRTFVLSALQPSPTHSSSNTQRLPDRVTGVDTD

[2] = molecular target: T2, CARBOXYPEPTIDASE N 83 KDA CHAIN (human, UniProt P22792 22-545)
T2 construct: from human serum; also called CBP8
T2 sequence (looked up): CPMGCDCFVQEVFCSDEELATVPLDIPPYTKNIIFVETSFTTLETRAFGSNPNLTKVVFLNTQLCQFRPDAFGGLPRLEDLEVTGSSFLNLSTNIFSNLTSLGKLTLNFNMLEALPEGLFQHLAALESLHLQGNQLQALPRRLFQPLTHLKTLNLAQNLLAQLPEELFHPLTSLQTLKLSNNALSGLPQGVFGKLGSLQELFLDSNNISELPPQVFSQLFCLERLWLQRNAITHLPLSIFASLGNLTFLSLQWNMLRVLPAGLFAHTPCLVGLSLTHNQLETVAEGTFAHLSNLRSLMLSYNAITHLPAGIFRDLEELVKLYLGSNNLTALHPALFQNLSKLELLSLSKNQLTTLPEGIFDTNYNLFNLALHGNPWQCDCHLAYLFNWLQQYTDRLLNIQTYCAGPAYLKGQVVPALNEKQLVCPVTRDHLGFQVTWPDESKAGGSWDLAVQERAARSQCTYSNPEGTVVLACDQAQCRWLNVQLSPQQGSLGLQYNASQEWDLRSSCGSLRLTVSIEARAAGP

[3] = molecular target: T3, VITRONECTIN (human, UniProt P04004 20-478)
T3 construct: from human serum; also called VTNC
T3 sequence (P04004 20-478 limits assumed): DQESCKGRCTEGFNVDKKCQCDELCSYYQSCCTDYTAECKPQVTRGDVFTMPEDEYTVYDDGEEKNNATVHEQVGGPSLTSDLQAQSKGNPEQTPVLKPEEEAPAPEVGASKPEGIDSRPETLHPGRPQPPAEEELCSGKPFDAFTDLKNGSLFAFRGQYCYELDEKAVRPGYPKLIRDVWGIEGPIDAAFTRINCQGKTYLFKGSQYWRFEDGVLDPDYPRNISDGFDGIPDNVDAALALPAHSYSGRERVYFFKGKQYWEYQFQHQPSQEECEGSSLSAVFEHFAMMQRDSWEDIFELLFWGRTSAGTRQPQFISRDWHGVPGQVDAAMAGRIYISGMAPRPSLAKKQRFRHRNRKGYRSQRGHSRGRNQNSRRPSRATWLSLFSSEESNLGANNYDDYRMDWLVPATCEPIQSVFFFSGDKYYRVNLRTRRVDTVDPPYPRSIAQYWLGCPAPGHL

[4] = molecular target: T4, HEMOPEXIN (human, UniProt P02790 24-462)
T4 construct: from human serum
T4 sequence (looked up): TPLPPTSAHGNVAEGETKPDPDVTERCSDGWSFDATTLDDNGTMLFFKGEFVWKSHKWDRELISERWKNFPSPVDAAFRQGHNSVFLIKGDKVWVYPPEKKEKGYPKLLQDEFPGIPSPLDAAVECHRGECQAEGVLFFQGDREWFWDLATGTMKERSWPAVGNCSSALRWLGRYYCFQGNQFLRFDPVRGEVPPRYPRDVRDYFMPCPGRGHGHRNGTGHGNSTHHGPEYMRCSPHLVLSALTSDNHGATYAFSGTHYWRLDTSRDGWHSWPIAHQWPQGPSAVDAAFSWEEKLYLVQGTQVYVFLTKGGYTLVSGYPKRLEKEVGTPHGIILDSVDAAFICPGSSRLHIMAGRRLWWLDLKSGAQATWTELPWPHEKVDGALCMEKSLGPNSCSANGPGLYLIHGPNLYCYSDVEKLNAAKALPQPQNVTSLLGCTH

[5] = molecular target: T5, IG MU CHAIN C REGION (human, UniProt P01871-1 1-453)
T5 construct: domain: C region; Polyclonal serum IgM, identified through its constant region; variable regions and light chains not defined
T5 heavy (looked up): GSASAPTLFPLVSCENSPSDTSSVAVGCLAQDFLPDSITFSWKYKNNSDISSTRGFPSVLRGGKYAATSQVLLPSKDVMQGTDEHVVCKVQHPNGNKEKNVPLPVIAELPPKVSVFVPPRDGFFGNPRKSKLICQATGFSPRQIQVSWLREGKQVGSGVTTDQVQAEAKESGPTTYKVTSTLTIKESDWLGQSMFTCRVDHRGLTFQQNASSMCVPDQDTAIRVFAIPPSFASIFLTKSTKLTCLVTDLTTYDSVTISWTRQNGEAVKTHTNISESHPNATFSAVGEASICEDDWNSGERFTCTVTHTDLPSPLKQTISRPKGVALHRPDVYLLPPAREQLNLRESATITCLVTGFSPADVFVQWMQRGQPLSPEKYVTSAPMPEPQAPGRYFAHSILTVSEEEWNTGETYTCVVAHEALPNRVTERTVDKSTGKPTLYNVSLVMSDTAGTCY

B1: wheat germ agglutinin (WGA), agarose-bound (other, UniProt P10968 27-197, looked up)
chain: QRCGEQGSNMECPNNLCCSQYGYCGMGGDYCGKGCQNGACWTSKRCGSQAGGATCTNNQCCSQYGYCGFGAEYCGAGCQGGPCRADIKCGSQAGGKLCPNNLCCSQWGFCGLGSEFCGGGCQSGACSTDKPCGKDAGGRVCTNNYCCSKWGSCGIGPGYCGAGCQSGGCDG
modifications: immobilized on agarose
notes: Lectin; released with N-acetyl-glucosamine; Coated on the plate in the lectin ELISA
SEQUEST ranking (relative abundance in the WGA displacement fraction) [1]: 11 to 15 rank
SEQUEST ranking (relative abundance in the WGA displacement fraction) [2]: 6 to 10 rank
SEQUEST ranking (relative abundance in the WGA displacement fraction) [3]: 6 to 10 rank
SEQUEST ranking (relative abundance in the WGA displacement fraction) [4]: 1 to 5 rank
SEQUEST ranking (relative abundance in the WGA displacement fraction) [5]: 6 to 10 rank
